From PMC9628480, “Discovery and structural characterization of chicoric acid as a SARS-CoV-2 nucleocapsid protein ligand and RNA binding disruptor” come the findings set out here.

The target in data set [1] is N protein NTD (SARS-CoV-2, UniProt A0A6B9VLF5 43-174). Put plainly: fluorescence polarization. The note with it: protein: recombinant; tags: SUMO tag (pET-SUMO) cleaved; label: 5'-FITC; hairpin. (In general: Polarisation of emitted light reports the rotation of a fluorescent probe.)
In data set [2] the target is N protein CTD (SARS-CoV-2, UniProt A0A6B9VLF5 250-364). Put plainly: fluorescence polarization. The note with it: protein: recombinant; tags: SUMO tag (pET-SUMO) cleaved; chain copies: 2; label: 5'-FITC; hairpin.

For the molecule CACUCACUGUCUUUUUUGAUGGUAGAGU (structured_RNA) [RNA1], the binding result in data set [1] and in data set [2] was “no binding” each time.
